The results in this text go back to PMC8635412, “Identification of disease-linked hyperactivating mutations in UBE3A through large-scale functional variant analysis” (Nature Communications, 2021).

This assay has as its target T1, N-terminal fluorescein-labeled ubiquitin (UniProt P0CG48 1-76, fluorescein on the N-terminus).
T1 construct: source: bought: Anaspec
The assay can be described thus: fluorescence polarisation; 1 uM fluorescein-labeled ubiquitin with varied concentrations of UBE3A HECT domain, 384-well plate, 30 °C; one-site specific binding model. Particulars: both partners purified. (In general: Polarisation of emitted light reports the rotation of a fluorescent probe.)

Changes are numbered by the printed parent chain. In names and notes the source's numbering stands.

B1: UBE3A HECT domain, wild type (domain or fragment, human, UniProt Q05086-2 495-852, looked up)
chain: QLNPYLRLKVRRDHIIDDALVRLEMIAMENPADLKKQLYVEFEGEQGVDEGGVSKEFFQLVVEEIFNPDIGMFTYDESTKLFWFNPSSFETEGQFTLIGIVLGLAIYNNCILDVHFPMVVYRKLMGKKGTFRDLGDSHPVLYQSLKDLLEYEGNVEDDMMITFQISQTDLFGNPMMYDLKENGDKIPITNENRKEFVNLYSDYILNKSVEKQFKAFRRGFHMVTNESPLKYLFRPEEIELLICGSRNLDFQALEETTEYDGGYTRDSVLIREFWEIVHSFTDEQKRLFLQFTTGTDRAPVGGLGKLKMIIAKNGPDTERLPTSHTCFNVLLLPEYSSKEKLKERLLKAITYAKGFGML
notes: UBE3A, human, HECT domain; residue numbers follow human UBE3A isoform I (NP_001361390.1); Cloned into pRSFDuet-1 with an octa-histidine-GST double tag and a TEV site; also called WT HECT domain; WT UBE3A; not shown: His8, N-terminal, cleaved; GST, N-terminal, cleaved
By Kd is commonly meant the constant that tells how readily two partners part at equilibrium. Higher therefore signals a looser complex. With B1, the affinity, expressed as Kd, was 65.7 ± 28.5 µM.

B2: UBE3A HECT domain Q588E (domain or fragment, human, UniProt Q05086-2 1-852, looked up)
chain: B1 chain with Q94E
notes: UBE3A, human, HECT domain with the patient variant Q588E; residue numbers follow human UBE3A isoform I (NP_001361390.1); Made by site-directed mutagenesis of the m1 construct; Q588E is a variant found in individuals (ClinVar); also called Q588E HECT domain; UBE3A Q588E; not shown: His8, N-terminal, cleaved; GST, N-terminal, cleaved
Molecule B2 had a Kd of 18 ± 1.5 µM.
